Here are results for 2 variants from FireProtDB (doi:10.1046/j.1432-1327.1999.00918.x).

Several values for one entry are separate records, joined by “and”; a condition that tells them apart may be missing. Identical values can stand only once.

The chains are these.
B1: Lysozyme C, P61626 (parent)
chain: MKALIVLGLVLLSVTVQGKVFERCELARTLKRLGMDGYRGISLANWMCLAKWESGYNTRATNYNAGDRSTDYGIFQINSRYWCNDGKTPGAVNACHLSCSALLQDNIADAVACAKRVVRDPQGIRAWVAWRNRCQNRDVRQYVQGCGV

In the data set the parent is B1. The note with it: Homo sapiens, Thermal, DSC, glycine 0.05 M, reversible: yes, structure 1LZ1, whole UniProt chain shown.

Broadly, the Tm is the temperature at the midpoint of the melting transition. Consider K19A, for which, for the setting “pH 2.58”, the Tm was determined as 60.9 °C, the “unfolding enthalpy (calorimetric)” value was 90.6 kcal/mol and the “unfolding enthalpy (van 't Hoff)” value is 98.7 kcal/mol. In addition, for the setting “pH 2.7”, the Tm is 62.7 °C; the “change of melting temperature, mutant - wild type (higher = more stable)” value was -2.2 °C; the “heat capacity change of unfolding” value was determined as 1.6 kcal/mol/K; the “unfolding enthalpy (calorimetric)” value worked out at 96.8 kcal/mol. Also, under “pH 2.77”, the Tm came out at 63.7 °C, the “unfolding enthalpy (calorimetric)” value worked out at 95.1 kcal/mol and the “unfolding enthalpy (van 't Hoff)” value was 99.4 kcal/mol.

With K19M, where the note is “pH 2.5”, the Tm stood at 61.7 °C, the “unfolding enthalpy (calorimetric)” value is 88.4 kcal/mol and the “unfolding enthalpy (van 't Hoff)” value was 90.1 kcal/mol. Further, the “ddG of mutation (higher = less stable)” value (pH 2.7, 64.9 °C) is 0.12 kcal/mol. Moreover, under “pH 2.7”, the Tm was 64.4 °C and 64.9 °C; the “change of melting temperature, mutant - wild type (higher = more stable)” value was -0.5 °C; the “heat capacity change of unfolding” value was found to be 1.03 kcal/mol/K; the “unfolding enthalpy (calorimetric)” value stood at 91.8 kcal/mol. Where the note is “pH 2.95”, the Tm turned out to be 69.1 °C, the “unfolding enthalpy (calorimetric)” value was determined as 95.4 kcal/mol and the “unfolding enthalpy (van 't Hoff)” value stood at 97.5 kcal/mol. Where the note is “pH 3.22”, the Tm came out at 70.1 °C, the “unfolding enthalpy (calorimetric)” value worked out at 98.5 kcal/mol and the “unfolding enthalpy (van 't Hoff)” value came out at 106 kcal/mol.
